Measurements: US8415106B2, “Cell-based screen for agents useful for reducing neuronal demyelination or promoting neuronal remyelination” (Myelin Repair Foundation, Inc., priority 2005, dated 2013)

Columns and labels:
[1] = tested on: ER stress markers (BIP, CHOP, p-eIF-2α, caspase-12); assay: ER stress markers in IFN-γ-treated cultured rat oligodendrocytes (real-time PCR, Western blot); type: cell-based
Protocol: To test whether apoptosis of oligodendrocytes that is induced by INF-γ affects ER stress, the effect on the morphology, the degree of apoptosis and the expression of ER markers was studied in a culture of oligodendrocyte precursor cells (OPC). Oligodendrocyte progenitors were cultured from neonatal rat brains (Baerwald, et al. (1998) J. Neurosci. Res. 52: 230-239). A mixed glial culture was grown in flasks in medium containing 10% fetal bovine serum (FBS), and when the astrocyte layer became confluent (10-14 days), oligodendrocyte progenitors were separated from astrocytes and microglia using an orbital shaker. Cells, greater than 95% of which were A2B5 positive, GFAP negative and CD11b negative, were cultured in 0.5% FBS containing medium, which also contained PDGF (10 ng/ml) and FGF (5 ng/ml) (both from R&D Systems, Minneapolis, Minn.). Then cells were switched to 0.5% FBS medium without PDGF and FGF for differentiation. After 5 days in the differentiating medium, approximately 40% of cells were positive for myelin protein 2′3′-cyclic nucleotide 3′-phosphodiestaerase (CNP). 70 U/ml recombinant rat IFN-γ (Calbiochem, La Jolla, Calif.) was added to the cells that had been allowed to differentiation for 5 days. […]
To determine whether INF-γ affects ER function, the RNA expression of ER markers binding immunoglobulin protein (BIP), CAAT enhancer binding protein homologous protein (CHOP), and caspase 12 was determined using real time PCR. […]
To determine the effect of INF-γ on the level of phosphorylated eIF-2α and caspase 12 proteins, western blot analysis was performed using the following antibodies anti-eIF-2α (1:500; Santa Cruz), anti-p-eIF-2α (1:1000, Cell signaling Technology), anti-caspase-12 (1:500; Santa Cruz) and anti-actin (1:1000; Sigma, St Louis, Mo.), and according to the following protocol. […] The protein content of each extract was determined by protein assay (Bio-Rad). […]

[2] = tested on: oligodendrocytes and myelin in the corpus callosum; assay: Cuprizone remyelination in double transgenic mice on PERK+/+ or PERK+/− background; type: in vivo; conditions: for remyelinated axons: 9 weeks
From the text: The involvement of the ER stress response in the reduction caused by IFN-γ to remyelinate lesions was examined in transgenic mice that were generated to be heterozygous for a loss of function mutation in pancreatic ER kinase (PERK) (Harding, et al., (2001) Mol Cell 7:1153-1163), and to be temporally regulated for expressing INF-γ in the CNS. TRE/IFN-γ mice were first crossed with PERK+/− mice (Harding, et al. (2001) Mol. Cell 7: 1153-1163) on the C57BL/6 background to generate mice the carry the PERK mutation, and the resulting progeny were crossed to GFAP/tTA mice to obtain transgenic mice that were heterozygous for the PERK mutation. The effect of PERK on remyelination in the presence or absence of INF-γ was evaluated as evaluated as a function of the level of myelination of oligodendrocytes in remyelinating lesions and the number of oligodendrocytes present in the remyelinating lesion.
The extent of remyelination was assessed as described in the previous examples in the corpus callosum of PERK+/+ and PERK+/− mice that were made to express INF-γ (DOX−PERK+/+ and DOX− PERK+/−), and in mice in which the expression of INF-γ was repressed (DOX+PERK+/+ and DOX+PERK+/−). Remyelination was determined by electron microscopy, and was related to the number of CC1 positive oligodendrocytes and the level of caspase-3 expression in the corpus callosum of all animals. The level of caspase-3 was determined by immunohistochemical methods using anti capsase antibody (active-casoase-3 antibody, 1:50; Cel Signaling Technology) and according to the method described in Example 1. Demyelination was induced in six-week-old GFAP/tTA; TRE/IFN-γ double transgenic mice on a PERK+/− background that had been maintained on doxycycline, by simultaneously treating the mice with 0.2% cuprizone and releasing them from doxycycline (DOX−PERK+/−). Remyelination was allowed to occur by withdrawing cuprizone at week 6.

B1: IFN-γ: pleotropic cytokine secreted by activated T lymphocytes and natural killer cells; recombinant rat IFN-γ added to cultures or transgenically expressed in mouse CNS (protein, UniProt P01581 23-156, looked up)
Interferon gamma: QGTLIESLESLKNYFNSSSMDAMEGKSLLLDIWRNWQKDGNTKILESQIISFYLRLFEVLKDNQAISNNISVIESHLITNFFSNSKAKKDAFMSIAKFEVNNPQIQHKAVNELIRVIHQLSPESSLRKRKRSRC
**Q.** B1 was tested. Which “caspase-12 expression (real-time PCR)” value ([1]; 70 U/ml IFN-γ) did it give?
**A.** The value was “induction of caspase-12 was observed”.

**Q.** And the “level of phosphorylated eIF-2α (Western blot)” value ([1]; 70 U/ml IFN-γ, oligodendroglial cultures)?
**A.** The value was “significantly elevated”.

**Q.** And the “level of the active fragment of caspase-12 (Western blot)” value ([1]; after 48 h of IFN-γ treatment)?
**A.** The value was “strongly elevated”.

**Q.** And the remyelinated axons ([2]; DOX−PERK+/+ mice, DOX+ 54.0%±4.3%)?
**A.** Its remyelinated axons is 31.1%±7.6%.

**Q.** What about the “number of CC1 positive oligodendrocytes” value ([2]; DOX−PERK+/+ mice, week 9, DOX+PERK+/+ 283.2±27.7) of the same molecule?
**A.** The value was 123.2±27.5 /0.04 mm^2.

**Q.** What about the remyelinated axons ([2]; DOX−PERK+/− mice, 3 weeks after cuprizone removal) of the same molecule?
**A.** Its remyelinated axons is 15.6%±7.6%.

**Q.** And the “number of oligodendrocytes positive for caspase-3, DOX−PERK+/− versus DOX−PERK+/+” value ([2]; corpus callosum, week 9)?
**A.** The value was 2.3 times.
